Test results reported in PMC6071684, “Defining the hydrophobic interactions that drive competence stimulating peptide (CSP)-ComD binding in Streptococcus pneumoniae” (Beilstein Journal of Organic Chemistry, 2018).
Where no end group is shown, it is not given here.

Key:
[1] = molecular target: ComD2 receptor (S. pneumoniae (endogenous in TIGR4pcomX::lacZ))
[2] = molecular target: ComD1 receptor (S. pneumoniae (endogenous in D39pcomX::lacZ))
[3] = molecular target: ComD1 receptor (Streptococcus pneumoniae serotype 2, UniProt A0A0H2ZM50); assay: cell-based
ComD1 receptor, sequence (A0A0H2ZM50 entry or part of it): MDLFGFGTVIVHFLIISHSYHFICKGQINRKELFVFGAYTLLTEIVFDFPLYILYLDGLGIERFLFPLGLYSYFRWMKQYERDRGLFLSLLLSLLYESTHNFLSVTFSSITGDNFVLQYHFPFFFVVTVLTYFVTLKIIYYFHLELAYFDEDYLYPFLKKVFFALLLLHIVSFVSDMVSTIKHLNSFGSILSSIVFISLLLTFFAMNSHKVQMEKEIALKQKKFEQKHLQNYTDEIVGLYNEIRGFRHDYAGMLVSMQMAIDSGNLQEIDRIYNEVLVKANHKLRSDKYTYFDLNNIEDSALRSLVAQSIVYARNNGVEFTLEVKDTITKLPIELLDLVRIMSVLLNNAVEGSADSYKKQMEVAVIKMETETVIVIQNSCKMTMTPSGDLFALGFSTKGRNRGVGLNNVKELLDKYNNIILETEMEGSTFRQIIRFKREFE
Procedure: (§1) To assess QS modulation, we utilized the β-gal reporter strains, constructed by Lau and co-worker. In these strains the lacZ gene is under the control of QS (pcomX). Thus, upon QS activation, ComE will bind pcomX and transcribe lacZ (in addition to upregulation of ComX). ComD modulation can therefore be quantified by measuring β-gal activity. The peptides were first screened for their ability to activate/inhibit the ComD1 and ComD2 receptors at high concentration (10 µM).
(§2) To examine the ability of the synthesized CSP analogs to modulate the ComD receptors, and thus the QS circuit in S. pneumoniae, β-galactosidase assays were performed using D39pcomX::lacZ (group I) and TIGR4pcomX::lacZ (group II) reporter strains as described in [19].
(§3) Bacterial growth conditions. Bacteria from a freezer stock were grown as described in [19]. Briefly, the bacteria were streaked into a THY agar plate supplemented with 5% donor horse serum and chloramphenicol at a final concentration of 4 µg/mL. The plate was incubated for 8 h in a CO2 incubator (37 °C with 5% CO2). Fresh colonies (single colony for D39pcomX::lacZ; multiple colonies for TIGR4pcomX::lacZ) were picked into sterilized cultural tubes containing 5 mL of THY broth supplemented with chloramphenicol at a final concentration of 4 µg/mL and the cultures were incubated in a CO2 incubator overnight (15 h). Overnight cultures were then diluted (1:50 for D39pcomX::lacZ; 1:10 for TIGR4pcomX::lacZ) with THY and the resulting solution was incubated in a CO2 incubator for 3–4 hours, until the bacteria reached early exponential stage (0.30–0.35 for D39pcomX::lacZ; 0.20–0.25 for TIGR4pcomX::lacZ) as determined by using a plate reader.
(§4) β-Galactosidase assay. Activation assays. […] Briefly, an initial activation screening was performed at high concentration (10 µM) for all CSP analogs. 2 µL of 1 mM solution of CSP analogs in dimethyl sulfoxide (DMSO) were added in triplicate to a clear 96-well microtiter plate. […] 2 µL of DMSO was added in triplicate and served as the negative control for both groups. Then, 198 µL of bacterial culture was added to each well containing CSP and analogs, the plate was incubated at 37 °C for 30 minutes, and the OD600nm was measured. In order to measure the β-galactosidase activity in the pneumococcal culture, the cells were lysed by incubating the culture for 30 minutes at 37 °C with 20 µL of 0.1% Triton X-100. In a new plate, 100 µL of Z-buffer solution (60.2 mM Na2HPO4, 45.8 mM NaH2PO4, 10 mM KCl, and 1.0 mM MgSO4 in 18 MΩ H2O; pH was adjusted to 7.0 and the buffer was sterilized before use) containing 2-nitrophenyl-β-D-galactopyranoside (ONPG) at a final concentration of 0.4 mg/mL was added, followed by 100 µL of lysate, and the plate was incubated for 3 hours at 37 °C. The reaction was stopped by adding 50 µL of 1 M sodium carbonate solution, and the OD420nm and OD550nm were measured using a plate reader. […] For calculation of Miller units, please see data analysis below.
(§5) Analysis of activation/inhibition data. Miller units were calculated using the following formula: […]
(§6) Abs420 is the absorbance of ortho-nitrophenol (ONP). Abs550 is the scatter from cell debris, which, when multiplied by 1.75 approximates the scatter observed at 420 nm. t is the duration of incubation with ONPG in minutes, v is volume of lysate in milliliters, and Abs600 reflects cell density.

[4] = molecular target: ComD2 receptor (Streptococcus pneumoniae serotype 4, UniProt A0A0H2US84); assay: cell-based
ComD2 receptor, sequence (A0A0H2US84 entry or part of it): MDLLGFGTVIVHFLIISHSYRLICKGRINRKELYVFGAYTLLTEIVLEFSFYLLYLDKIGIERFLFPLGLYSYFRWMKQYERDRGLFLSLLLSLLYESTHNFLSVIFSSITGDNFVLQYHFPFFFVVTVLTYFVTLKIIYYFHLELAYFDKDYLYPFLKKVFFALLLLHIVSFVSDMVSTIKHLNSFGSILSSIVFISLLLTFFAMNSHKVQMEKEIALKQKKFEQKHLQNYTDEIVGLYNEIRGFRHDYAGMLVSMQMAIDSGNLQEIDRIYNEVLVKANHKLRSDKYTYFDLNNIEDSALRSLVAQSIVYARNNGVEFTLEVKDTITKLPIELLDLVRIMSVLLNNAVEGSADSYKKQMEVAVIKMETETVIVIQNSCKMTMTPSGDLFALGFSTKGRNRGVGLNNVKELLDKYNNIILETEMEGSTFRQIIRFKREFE
Procedure: as §1, §2, §3, §4, §5, §6

CSP1-I12NL (peptide)
EC50 of activation of pcomX::lacZ (β-galactosidase) in reporter strain TIGR4pcomX::lacZ (group II, ComD2) [1]: > 1 µM
EC50 of activation of pcomX::lacZ (β-galactosidase) in reporter strain D39pcomX::lacZ (group I, ComD1) [2]: 0.00668 µM

CSP1-L4I (peptide)
EC50 of activation of pcomX::lacZ (β-galactosidase) in reporter strain TIGR4pcomX::lacZ (group II, ComD2) [1]: > 1 µM
EC50 of activation of pcomX::lacZ (β-galactosidase) in reporter strain D39pcomX::lacZ (group I, ComD1) [2]: 0.0102 µM

CSP1-I12NV (peptide)
EC50 of activation of pcomX::lacZ (β-galactosidase) in reporter strain TIGR4pcomX::lacZ (group II, ComD2) [1]: 0.853 µM
EC50 of activation of pcomX::lacZ (β-galactosidase) in reporter strain D39pcomX::lacZ (group I, ComD1) [2]: 0.0138 µM

CSP1-L13NL (peptide)
EC50 of activation of pcomX::lacZ (β-galactosidase) in reporter strain TIGR4pcomX::lacZ (group II, ComD2) [1]: > 1 µM
EC50 of activation of pcomX::lacZ (β-galactosidase) in reporter strain D39pcomX::lacZ (group I, ComD1) [2]: 0.0186 µM

CSP1-L4NV (peptide)
EC50 of activation of pcomX::lacZ (β-galactosidase) in reporter strain TIGR4pcomX::lacZ (group II, ComD2) [1]: 0.627 µM
EC50 of activation of pcomX::lacZ (β-galactosidase) in reporter strain D39pcomX::lacZ (group I, ComD1) [2]: 0.00574 µM

CSP1-L4NL (peptide)
EC50 of activation of pcomX::lacZ (β-galactosidase) in reporter strain TIGR4pcomX::lacZ (group II, ComD2) [1]: > 1 µM
EC50 of activation of pcomX::lacZ (β-galactosidase) in reporter strain D39pcomX::lacZ (group I, ComD1) [2]: 0.0135 µM

CSP1-F8HF (peptide)
EC50 of activation of pcomX::lacZ (β-galactosidase) in reporter strain TIGR4pcomX::lacZ (group II, ComD2) [1]: > 1 µM
EC50 of activation of pcomX::lacZ (β-galactosidase) in reporter strain D39pcomX::lacZ (group I, ComD1) [2]: 0.0434 µM

CSP1-L13I (peptide)
EC50 of activation of pcomX::lacZ (β-galactosidase) in reporter strain TIGR4pcomX::lacZ (group II, ComD2) [1]: 0.705 µM
EC50 of activation of pcomX::lacZ (β-galactosidase) in reporter strain D39pcomX::lacZ (group I, ComD1) [2]: 0.00912 µM

CSP1-L13NV (peptide)
EC50 of activation of pcomX::lacZ (β-galactosidase) in reporter strain TIGR4pcomX::lacZ (group II, ComD2) [1]: > 1 µM
EC50 of activation of pcomX::lacZ (β-galactosidase) in reporter strain D39pcomX::lacZ (group I, ComD1) [2]: 0.0152 µM

CC[C@H](C)[C@H](NC(=O)[C@H](Cc1ccccc1)NC(=O)[C@H](CC(=O)O)NC(=O)[C@H](CCCNC(=N)N)NC(=O)[C@H](CCc1ccccc1)NC(=O)[C@H](Cc1ccccc1)NC(=O)[C@H](CCCCN)NC(=O)[C@H](CO)NC(=O)[C@H](CC(C)C)NC(=O)[C@H](CCCNC(=N)N)NC(=O)[C@H](CCSC)NC(=O)[C@@H](N)CCC(=O)O)C(=O)N[C@@H](CC(C)C)C(=O)N[C@@H](CCC(N)=O)C(=O)N[C@@H](CCCNC(=N)N)C(=O)N[C@@H](CCCCN)C(=O)N[C@@H](CCCCN)C(=O)O [CSP1-F8HF]
EC50 [3]: 0.0434 µM
EC50 [4]: > 1 µM

CSP1-I12L (peptide)
EC50 of activation of pcomX::lacZ (β-galactosidase) in reporter strain TIGR4pcomX::lacZ (group II, ComD2) [1]: 0.537 µM
EC50 of activation of pcomX::lacZ (β-galactosidase) in reporter strain D39pcomX::lacZ (group I, ComD1) [2]: 0.00856 µM

CSP1-F7HF (peptide)
EC50 of activation of pcomX::lacZ (β-galactosidase) in reporter strain TIGR4pcomX::lacZ (group II, ComD2) [1]: 0.317 µM
EC50 of activation of pcomX::lacZ (β-galactosidase) in reporter strain D39pcomX::lacZ (group I, ComD1) [2]: 0.0817 µM

EMRLSKFYRDFILQRKK-OH [CSP1-F8Y]
EC50 [3]: 0.085 µM
ComD2 primary agonism screening: low induction, EC50 not determined ([4]; TIGR4pcomX::lacZ, 10 µM peptide, only analogs with greater than 75% activation compared to CSP2 were taken to EC50): –^e

CCCC[C@H](NC(=O)[C@H](CCCNC(=N)N)NC(=O)[C@H](CCSC)NC(=O)[C@@H](N)CCC(=O)O)C(=O)N[C@@H](CO)C(=O)N[C@@H](CCCCN)C(=O)N[C@@H](Cc1ccccc1)C(=O)N[C@@H](Cc1ccccc1)C(=O)N[C@@H](CCCNC(=N)N)C(=O)N[C@@H](CC(=O)O)C(=O)N[C@@H](Cc1ccccc1)C(=O)N[C@H](C(=O)N[C@@H](CC(C)C)C(=O)N[C@@H](CCC(N)=O)C(=O)N[C@@H](CCCNC(=N)N)C(=O)N[C@@H](CCCCN)C(=O)N[C@@H](CCCCN)C(=O)O)[C@@H](C)CC [CSP1-L4NL]
EC50 [3]: 0.0135 µM
EC50 [4]: > 1 µM
